System: Escherichia coli TOP10
Assay: shrunken log2 fold change of peptide-encoding DNA abundance (4.5 h post-induction vs induction); higher = less antimicrobial activity (less host growth inhibition)
Settings: time post-induction: 4.5 h; library: site-saturation at positions 5, 18, 19, 20
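Note: peptides expressed intracellularly from a pBAD plasmid library in pooled LB shake-flask culture, induced with 0.3% L-arabinose, DNA abundance read by NGS, three biological replicates, DESeq2 with apeglm shrinkage.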

Row | Sequence | shrunken log2 fold change
1 | RRIRCRPPRLPRPRPRPATSPRP | 0.0157
2 | RRIRCRPPRLPRPRPRPAVAPRP | 0.137
3 | RRIRCRPPRLPRPRPRPAVFPRP | -0.127
4 | RRIRCRPPRLPRPRPRPAVYPRP | 0.0903
5 | RRIRCRPPRLPRPRPRPAWWPRP | 0.902
6 | RRIRCRPPRLPRPRPRPAYKPRP | -0.093
7 | RRIRCRPPRLPRPRPRPAYNPRP | -0.619
8 | RRIRCRPPRLPRPRPRPCAIPRP | 0.651
9 | RRIRCRPPRLPRPRPRPCCHPRP | -0.204
10 | RRIRCRPPRLPRPRPRPCHPPRP | -0.348
11 | RRIRCRPPRLPRPRPRPCIIPRP | -0.538
12 | RRIRCRPPRLPRPRPRPCKEPRP | -0.35
13 | RRIRCRPPRLPRPRPRPCLNPRP | -0.589
14 | RRIRCRPPRLPRPRPRPCLPPRP | -0.439
15 | RRIRCRPPRLPRPRPRPCMHPRP | -0.0569
16 | RRIRCRPPRLPRPRPRPCNQPRP | -0.412
17 | RRIRCRPPRLPRPRPRPCPKPRP | -0.0654
18 | RRIRCRPPRLPRPRPRPCQFPRP | -0.0777
19 | RRIRCRPPRLPRPRPRPCRFPRP | -0.178
20 | RRIRCRPPRLPRPRPRPCRNPRP | -0.154
21 | RRIRCRPPRLPRPRPRPCSHPRP | -1.29
22 | RRIRCRPPRLPRPRPRPCSPPRP | -0.241
23 | RRIRCRPPRLPRPRPRPCSQPRP | -0.256
24 | RRIRCRPPRLPRPRPRPCSTPRP | -0.245
25 | RRIRCRPPRLPRPRPRPCVCPRP | -0.128

Row | Sequence | shrunken log2 fold change
26 | RRIRCRPPRLPRPRPRPCVNPRP | -0.106
27 | RRIRCRPPRLPRPRPRPCVRPRP | -0.163
28 | RRIRCRPPRLPRPRPRPCYEPRP | -0.663
29 | RRIRCRPPRLPRPRPRPCYIPRP | -0.0945
30 | RRIRCRPPRLPRPRPRPCYKPRP | 0.0187
31 | RRIRCRPPRLPRPRPRPCYQPRP | -0.182
32 | RRIRCRPPRLPRPRPRPCYRPRP | -0.256
33 | RRIRCRPPRLPRPRPRPDDKPRP | -0.739
34 | RRIRCRPPRLPRPRPRPDDLPRP | -0.118
35 | RRIRCRPPRLPRPRPRPDFIPRP | -0.383
36 | RRIRCRPPRLPRPRPRPDGRPRP | 0.00474
37 | RRIRCRPPRLPRPRPRPDGVPRP | 0.125
38 | RRIRCRPPRLPRPRPRPDGYPRP | -0.0404
39 | RRIRCRPPRLPRPRPRPDHQPRP | -0.172
40 | RRIRCRPPRLPRPRPRPDITPRP | -0.022
41 | RRIRCRPPRLPRPRPRPDKDPRP | -0.0474
42 | RRIRCRPPRLPRPRPRPDKWPRP | 0.184
43 | RRIRCRPPRLPRPRPRPDLEPRP | -0.26
44 | RRIRCRPPRLPRPRPRPDLHPRP | -0.252
45 | RRIRCRPPRLPRPRPRPDLIPRP | -0.109
46 | RRIRCRPPRLPRPRPRPDLRPRP | -0.035
47 | RRIRCRPPRLPRPRPRPDMNPRP | -0.312
48 | RRIRCRPPRLPRPRPRPDNEPRP | -0.229
49 | RRIRCRPPRLPRPRPRPDNKPRP | -0.795
50 | RRIRCRPPRLPRPRPRPDNMPRP | -1.31

Row | Sequence | shrunken log2 fold change
51 | RRIRCRPPRLPRPRPRPDPDPRP | -0.141
52 | RRIRCRPPRLPRPRPRPDRCPRP | 0.16
53 | RRIRCRPPRLPRPRPRPDRHPRP | 0.0552
54 | RRIRCRPPRLPRPRPRPDTGPRP | -0.879
55 | RRIRCRPPRLPRPRPRPDVFPRP | -0.151
56 | RRIRCRPPRLPRPRPRPEAAPRP | 1.11
57 | RRIRCRPPRLPRPRPRPEAHPRP | 0.38
58 | RRIRCRPPRLPRPRPRPECLPRP | -0.109
59 | RRIRCRPPRLPRPRPRPEDEPRP | 0.076
60 | RRIRCRPPRLPRPRPRPEDHPRP | -0.0393
61 | RRIRCRPPRLPRPRPRPEDKPRP | -0.114
62 | RRIRCRPPRLPRPRPRPEDTPRP | -0.146
63 | RRIRCRPPRLPRPRPRPEEHPRP | -0.0578
64 | RRIRCRPPRLPRPRPRPEGVPRP | 2.48
65 | RRIRCRPPRLPRPRPRPEKEPRP | -0.0494
66 | RRIRCRPPRLPRPRPRPEKSPRP | 0.0445
67 | RRIRCRPPRLPRPRPRPENHPRP | -0.415
68 | RRIRCRPPRLPRPRPRPENSPRP | -0.0484
69 | RRIRCRPPRLPRPRPRPENTPRP | -0.297
70 | RRIRCRPPRLPRPRPRPEPKPRP | 0.104
71 | RRIRCRPPRLPRPRPRPEQNPRP | 0.268
72 | RRIRCRPPRLPRPRPRPERAPRP | 0.675
73 | RRIRCRPPRLPRPRPRPERIPRP | 0.164
74 | RRIRCRPPRLPRPRPRPETVPRP | 0.448
75 | RRIRCRPPRLPRPRPRPEVRPRP | 0.24

Row | Sequence | shrunken log2 fold change
76 | RRIRCRPPRLPRPRPRPEWIPRP | -0.151
77 | RRIRCRPPRLPRPRPRPEWRPRP | 0.391
78 | RRIRCRPPRLPRPRPRPEYEPRP | -0.108
79 | RRIRCRPPRLPRPRPRPFAWPRP | 0.0983
80 | RRIRCRPPRLPRPRPRPFCGPRP | 0.011
81 | RRIRCRPPRLPRPRPRPFCSPRP | -0.008
82 | RRIRCRPPRLPRPRPRPFDAPRP | 0.0524
83 | RRIRCRPPRLPRPRPRPFDIPRP | -1.4
84 | RRIRCRPPRLPRPRPRPFEDPRP | -0.019
85 | RRIRCRPPRLPRPRPRPFFGPRP | 0.0829
86 | RRIRCRPPRLPRPRPRPFGWPRP | 0.24
87 | RRIRCRPPRLPRPRPRPFHVPRP | -0.893
88 | RRIRCRPPRLPRPRPRPFKRPRP | -0.219
89 | RRIRCRPPRLPRPRPRPFLFPRP | -0.291
90 | RRIRCRPPRLPRPRPRPFMWPRP | -0.165
91 | RRIRCRPPRLPRPRPRPFPVPRP | 0.11
92 | RRIRCRPPRLPRPRPRPFQEPRP | -0.101
93 | RRIRCRPPRLPRPRPRPFQYPRP | -1.21
94 | RRIRCRPPRLPRPRPRPFTYPRP | -0.631
95 | RRIRCRPPRLPRPRPRPFVHPRP | -0.891
96 | RRIRCRPPRLPRPRPRPFWFPRP | -0.245
97 | RRIRCRPPRLPRPRPRPFWHPRP | -0.0854
98 | RRIRCRPPRLPRPRPRPFWSPRP | -0.331
99 | RRIRCRPPRLPRPRPRPGCGPRP | 0.545
100 | RRIRCRPPRLPRPRPRPGDVPRP | -0.319

Row | Sequence | shrunken log2 fold change
101 | RRIRCRPPRLPRPRPRPGGLPRP | 0.17
102 | RRIRCRPPRLPRPRPRPGHVPRP | 0.0304
103 | RRIRCRPPRLPRPRPRPGIEPRP | -0.0627
104 | RRIRCRPPRLPRPRPRPGIIPRP | -0.00738
105 | RRIRCRPPRLPRPRPRPGIMPRP | -0.594
106 | RRIRCRPPRLPRPRPRPGIRPRP | -0.107
107 | RRIRCRPPRLPRPRPRPGLKPRP | -0.113
108 | RRIRCRPPRLPRPRPRPGMGPRP | 0.223
109 | RRIRCRPPRLPRPRPRPGMRPRP | 0.532
110 | RRIRCRPPRLPRPRPRPGPAPRP | 0.543
111 | RRIRCRPPRLPRPRPRPGQAPRP | -0.0147
112 | RRIRCRPPRLPRPRPRPGQCPRP | -0.11
113 | RRIRCRPPRLPRPRPRPGQIPRP | 0.165
114 | RRIRCRPPRLPRPRPRPGQSPRP | 0.0538
115 | RRIRCRPPRLPRPRPRPGRMPRP | 0.141
116 | RRIRCRPPRLPRPRPRPGSMPRP | -0.24
117 | RRIRCRPPRLPRPRPRPGTAPRP | 0.292
118 | RRIRCRPPRLPRPRPRPGTFPRP | -0.0668
119 | RRIRCRPPRLPRPRPRPGTMPRP | 0.0719
120 | RRIRCRPPRLPRPRPRPGVHPRP | -0.108
121 | RRIRCRPPRLPRPRPRPGWGPRP | 0.42
122 | RRIRCRPPRLPRPRPRPGWRPRP | 0.331
123 | RRIRCRPPRLPRPRPRPGWTPRP | 0.0289
124 | RRIRCRPPRLPRPRPRPGWWPRP | 0.054
125 | RRIRCRPPRLPRPRPRPGYLPRP | -0.561

Row | Sequence | shrunken log2 fold change
126 | RRIRCRPPRLPRPRPRPGYSPRP | -0.483
127 | RRIRCRPPRLPRPRPRPGYTPRP | 0.00337
128 | RRIRCRPPRLPRPRPRPHACPRP | -0.281
129 | RRIRCRPPRLPRPRPRPHADPRP | 0.145
130 | RRIRCRPPRLPRPRPRPHCIPRP | -0.468
131 | RRIRCRPPRLPRPRPRPHCMPRP | -0.517
132 | RRIRCRPPRLPRPRPRPHCTPRP | -0.88
133 | RRIRCRPPRLPRPRPRPHEFPRP | -0.267
134 | RRIRCRPPRLPRPRPRPHENPRP | -0.0452
135 | RRIRCRPPRLPRPRPRPHFFPRP | -0.633
136 | RRIRCRPPRLPRPRPRPHGDPRP | -0.0473
137 | RRIRCRPPRLPRPRPRPHGNPRP | -0.233
138 | RRIRCRPPRLPRPRPRPHHAPRP | 0.0208
139 | RRIRCRPPRLPRPRPRPHKGPRP | -0.363
140 | RRIRCRPPRLPRPRPRPHLDPRP | -0.0622
141 | RRIRCRPPRLPRPRPRPHLSPRP | -0.147
142 | RRIRCRPPRLPRPRPRPHMQPRP | -0.322
143 | RRIRCRPPRLPRPRPRPHMWPRP | -0.555
144 | RRIRCRPPRLPRPRPRPHMYPRP | -0.715
145 | RRIRCRPPRLPRPRPRPHPDPRP | -0.0728
146 | RRIRCRPPRLPRPRPRPHPHPRP | -0.0639
147 | RRIRCRPPRLPRPRPRPHPWPRP | -0.158
148 | RRIRCRPPRLPRPRPRPHQLPRP | -0.465
149 | RRIRCRPPRLPRPRPRPHRPPRP | -0.0186
150 | RRIRCRPPRLPRPRPRPHRYPRP | -0.114
